Entries after “also recorded” stand apart in the source; their conditions may differ. Ends that are not written are not given here.
Key:
[1] = In vitro stability of DGC fluorescence on storage in PBS; format: physicochemical; conditions: two weeks storage in PBS
Description: In this manuscript, Lu et al. reported a novel gold cluster-based probe modified with peptides that specifically bind to connective tissue growth factor (CTGF). Owing to the elevated expression of CTGF is an upstream regulator of amyloid-beta (Aβ) plaque, the probe holds a promise for potential application in the early diagnosis of Alzheimer's disease (AD). The unique feature of this probe is their capacity to emit near-infrared (NIR) light, rendering them suitable for in vivo imaging. Moreover, their ability to […]
The article is well-crafted, and the experiments convincingly highlight the distinctive properties of the newly developed probe. […]
following concerns are addressed.
Reviewer 1: How long can the fluorescence last in the cells and AD brain, or how stable is the fluorescence of the probe?
Response: We monitored the fluorescence changes of DGC probes in vitro, in U87MG cells and in brain of APP/PS1 mice, respectively. […]
cultured U87MG cells, DGC probe could be well internalized, and obvious […]
medium for 72 h (Fig R5). In APP/PS1 mice, we detected temporal changes of luminescence from DGC in the brain by in vivo NIR-II imaging. […]
Figure R6. […] Monitoring fluorescence intensity of DGC in brain of WT mice and 3-month-old APP/PS1 mice for 24 h (left). […]

[2] = biological target: T1, CTGF (Homo sapiens, UniProt P29279); assay: ICP-MS of Au content in DGC-labelled human brain sections; parameters: The brain tissue samples of autopsy-confirmed AD patients were obtained from the Chinese Brain Bank Center; from tissue; host or cells: postmortem human brain sections (hippocampus, cortex) of AD patients and healthy controls; ICP-MS (Au content): unit not given here
T1 sequence (P29279 27-349): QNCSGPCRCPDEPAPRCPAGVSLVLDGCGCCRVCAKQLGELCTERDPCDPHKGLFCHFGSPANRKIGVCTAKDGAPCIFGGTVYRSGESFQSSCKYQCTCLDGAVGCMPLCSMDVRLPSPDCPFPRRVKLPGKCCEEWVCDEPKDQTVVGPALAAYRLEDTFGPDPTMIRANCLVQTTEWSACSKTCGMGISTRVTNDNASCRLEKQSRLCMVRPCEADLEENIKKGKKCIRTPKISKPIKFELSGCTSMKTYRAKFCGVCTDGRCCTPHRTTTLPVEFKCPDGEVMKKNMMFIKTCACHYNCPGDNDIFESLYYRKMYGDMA
Method: The brain tissue samples of autopsy-confirmed AD patients were obtained from the Chinese Brain Bank Center (CBBC) and Human Brain Bank, Central South University Xiangya School of Medicine. First, the brain sections were air-dried for 15 min at room temperature, followed by immersion in water. 5% H2O2 was applied for 15 min at room temperature. The sections were washed three times with PBS for 5 min each time. Then, tissue repair was performed using trypsin at a temperature of 37 °C for 5 min and washed three times with PBS. We chose 10% sheep serum to block for a duration of 20 min at 37°. Primary antibodies (CTGF antibody and Aβ antibody) were added to the sections overnight at 4 °C. FITC-labeled Goat Anti-Rabbit IgG (H + L) (1: dilution 1:200, Bioss, Cat#bs-0370R-FITC) was applied and incubated at 37 °C for 20 min in darkness. Subsequent washing steps involved rinsing the sections three times with PBS, each time lasting for 5 min while avoiding exposure to light. DAPI staining was performed, taking care to store the samples away from light during the 5-min procedure. Then observed by the CLSM system. Then, we chose the optimal incubation concentration of DGC (200 μM) was used to determine the conditions using DAB Horseradish Peroxidase Color Development Kit. After the brain sections were co-stained by DGC (200 μM) at 4 °C overnight, a DAB chromogenic agent was added to the brain tissue sections to explore whether DGC can catalyze DAB solutions to produce insoluble brown precipitate to attach the brain tissue sections with an optical microscope. Finally, the brain tissue sections were digested with aqua regia to measure the Au content by the ICP-MS system.

[3] = Monitoring DGC in blood serum by ex vivo NIR-II imaging; parameters: species or system C57BL/6J mice; conditions: NIR-II imaging and ICP-MS quantification of DGC in mouse serum after tail vein injection
Method: The C57BL/6J mice (male and female) were injected with DGC (20 mg/kg) through the tail vein (n = 3). After injection, the blood samples were collected at 0.083, 0.25, 0.5, 1, 2, 4, 8, 10, 12, 24, and 48 h through the posterior orbital vein of the mice. The serum was obtained by centrifugation (1200×g for 5 min) to remove blood cells. The serum samples were observed through the In vivo Master (Grand-imaging Technology) equipped with an InGaAs camera C-RED2 (Firstlight) (λ ex = 808 nm, 1000 nm longpass (LP) filter (Edmund Optics)) camera to obtain the NIR-II image (exposure time: 50 ms). ImageJ software was used to process and analyze the images obtained in the experiment, and the DGC content in the sample was evaluated according to the fluorescence intensity of the sample.

For “DGC: CTGF-targeting peptide-coated gold nanocluster: one Au26 gold nanocluster coated by eight DAG cyclic peptides, NIR-II and red fluorescence (CDAGRKQKC; also: cyclic peptide, ring not given here, eight peptides on one Au26 nanocluster via Cys Au-S bonds)”, the “fluorescence intensity change on storage” value [1] was “decreased only slightly; also recorded: decreased only”, the “ICP-MS (Au content)” value ([2]; AD 1, Cortex section stained with DGC) was 16.9799 and the “ICP-MS (Au content)” value ([2]; AD 1, Hippocampus section stained with DGC) was 24.3713. The “ICP-MS (Au content)” value ([2]; AD 2, Cortex section stained with DGC) was 28.448, the “ICP-MS (Au content)” value ([2]; AD 2, Hippocampus section stained with DGC) was 30.5308 and the “Au Content (DGC) per cm^2 by ICP-MS” value ([2]; Case 1 (healthy control, Thal 0) brain section, section 1) was 0.1533. The “Au Content (DGC) per cm^2 by ICP-MS” value ([2]; Case 1 (healthy control, Thal 0) brain section, section 2) was 0.3279, the “Au Content (DGC) per cm^2 by ICP-MS” value ([2]; Case 1 (healthy control, Thal 0) brain section, section 3) was 0.1558 and the “Au Content (DGC) per cm^2 by ICP-MS” value ([2]; Case 2 (healthy control, Thal 0) brain section, section 1) was 0.09047. The “Au Content (DGC) per cm^2 by ICP-MS” value ([2]; Case 2 (healthy control, Thal 0) brain section, section 2) was 0.265, the “Au Content (DGC) per cm^2 by ICP-MS” value ([2]; Case 2 (healthy control, Thal 0) brain section, section 3) was 0.06474 and the “Au Content (DGC) per cm^2 by ICP-MS” value ([2]; Case 3 (AD, Thal 1) brain section, section 1) was 0.6218. For the same substance, the “Au Content (DGC) per cm^2 by ICP-MS” value ([2]; Case 3 (AD, Thal 1) brain section, section 2) was 0.4537, the “Au Content (DGC) per cm^2 by ICP-MS” value ([2]; Case 3 (AD, Thal 1) brain section, section 3) was 0.399 and the “Au Content (DGC) per cm^2 by ICP-MS” value ([2]; Case 4 (AD, Thal 1) brain section, section 1) was 0.5318. The “Au Content (DGC) per cm^2 by ICP-MS” value ([2]; Case 4 (AD, Thal 1) brain section, section 2) was 0.7576, the “Au Content (DGC) per cm^2 by ICP-MS” value ([2]; Case 4 (AD, Thal 1) brain section, section 3) was 0.7155 and the “ICP-MS (Au content)” value ([2]; HC 1, Cortex section stained with DGC) was 3.7846. For the same substance, the “ICP-MS (Au content)” value ([2]; HC 1, Hippocampus section stained with DGC) was 2.83, the “ICP-MS (Au content)” value ([2]; HC 2, Cortex section stained with DGC) was 3.7846 and the “ICP-MS (Au content)” value ([2]; HC 2, Hippocampus section stained with DGC) was 11.6586. For the same substance, the “stability in blood circulation” value [3] was “high stability during internal circulation”.

From publication PMC11169542, “A probe for NIR-II imaging and multimodal analysis of early Alzheimer’s disease by targeting CTGF” (Nature Communications, 2024)
